We go through one molecule from patent US20030232420A1 (SEQUENOM, published 2003).

Ends that are not written are not given here.

Assay [1] has as its target T1, RIα isoform of the PKA regulatory subunit (Bos taurus (Bovine), UniProt P00514 2-380).
T1 construct: also called R1α; PKA-RIα
The experiment in a line: fluorescence anisotropy. On the technique in general: In fluorescence polarisation assays a small probe gives low polarisation when free and higher when bound to something large.

In assay [2] the target is T2, Full-length murine RIIα (murine, UniProt P12367 2-401).
T2 construct: mature; given as full-length
The experiment in a line: fluorescence anisotropy, labeled peptide. As for the experimental part:
(§1) Binding of each fluorescently labeled peptide to the regulatory subunits was monitored using fluorescence anisotropy. RIα and RIIα were serially diluted beginning at 1 μM and 0.1 μM, respectively, into 10 mM HEPES pH 7.4, 0.15 M NaCl, 3 mM EDTA, 0.005% Surfactant P20 (Biacore) containing either 10 nM or 1 nM of fluorescently labeled peptide for RIα and RIIα, respectively. The samples were equilibrated for at least 1 hour at room temperature and fluorescence anisotropy monitored using a Fluoromax-2 (Jobin Yvon Horiba, SPEX Division, Edison, N.J.) equipped with Glan-Thompson polarizers. The rhodamine-labeled peptide was excited at 541 nm (5-10 nm bandpass) and emission monitored at 575 nm (5-10 nm bandpass). The anisotropy was calculated directly with the Fluoromax software using the following equation: […]
(§2) Several additional truncated and substituted peptides were synthesized and their affinity to RIα and RIIα evaluated using fluorescence anisotropy (see Table 8). Binding was evaluated for both RIα and RIIα0 using fluorescence anisotropy as described herein. Substituted residues are in bold Table 8. Tryptophan at a position corresponding to residue 21 of SEQ ID NO:2 is important for discriminating against binding to the RIIα subunit.

The target of assay [3] is T3, Full-length bovine RIα (bovine, UniProt P00514 1-380).
T3 construct: mature; given as full-length
As to the kind of experiment: fluorescence anisotropy, labeled peptide. As for the experimental part:
as §1, §2

Assay [4] has as its target T2, Full-length murine RIIα. As to the kind of experiment: fluorescence anisotropy, labeled peptide, n = 3. Here is the method: as §1
(§3) The binding affinities of three peptides designated RIIα-specific (A13L; SEQ ID NO:109), RIα-specific (Q9F, V21W, and M25F; SEQ ID NO:103) and null (A17E and V21W; SEQ ID NO:110) were compared with the unsubstituted peptide (FIG. 2 and Table 7) using fluorescence anisotropy. […] The null peptide bound very poorly to RIα and binding to RIIα could not be detected (FIG. 2).

Assay [5] deals with T3, Full-length bovine RIα. As to the kind of experiment: fluorescence anisotropy, labeled peptide, n = 3. As for the experimental part: as §1, §3
Assay [6] deals with T3, Full-length bovine RIα. As to the kind of experiment: fluorescence anisotropy, labeled peptide with increasing full-length RIα; the concentration on the axis is that of the protein. As for the experimental part:
as §1, §3

Assay [7] concerns the target T2, Full-length murine RIIα. As to the kind of experiment: fluorescence anisotropy, labeled peptide with increasing full-length RIIα; the concentration on the axis is that of the protein. Here is the method: as §1, §3

T3 sequence (P00514 whole entry): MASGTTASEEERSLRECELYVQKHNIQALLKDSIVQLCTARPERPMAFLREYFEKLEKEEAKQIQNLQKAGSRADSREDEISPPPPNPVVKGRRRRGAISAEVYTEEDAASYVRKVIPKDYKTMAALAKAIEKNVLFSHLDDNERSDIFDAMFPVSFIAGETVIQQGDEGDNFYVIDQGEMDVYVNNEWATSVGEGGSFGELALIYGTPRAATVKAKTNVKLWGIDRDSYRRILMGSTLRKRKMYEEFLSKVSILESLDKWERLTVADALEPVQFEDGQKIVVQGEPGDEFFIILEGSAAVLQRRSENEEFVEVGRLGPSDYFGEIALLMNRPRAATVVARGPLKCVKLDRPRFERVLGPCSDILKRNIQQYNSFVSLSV
T2 sequence (P12367 2-401): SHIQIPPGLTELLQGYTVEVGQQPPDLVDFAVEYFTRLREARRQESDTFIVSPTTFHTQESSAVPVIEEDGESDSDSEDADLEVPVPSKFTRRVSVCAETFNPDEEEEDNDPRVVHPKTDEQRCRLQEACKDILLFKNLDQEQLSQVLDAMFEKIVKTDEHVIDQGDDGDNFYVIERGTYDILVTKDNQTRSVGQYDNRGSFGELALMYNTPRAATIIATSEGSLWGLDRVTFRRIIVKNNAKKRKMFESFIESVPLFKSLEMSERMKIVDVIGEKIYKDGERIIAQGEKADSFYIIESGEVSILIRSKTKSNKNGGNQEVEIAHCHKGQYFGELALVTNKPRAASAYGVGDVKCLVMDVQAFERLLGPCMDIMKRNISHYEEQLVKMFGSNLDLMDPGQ
T1 sequence (P00514 2-380 limits assumed): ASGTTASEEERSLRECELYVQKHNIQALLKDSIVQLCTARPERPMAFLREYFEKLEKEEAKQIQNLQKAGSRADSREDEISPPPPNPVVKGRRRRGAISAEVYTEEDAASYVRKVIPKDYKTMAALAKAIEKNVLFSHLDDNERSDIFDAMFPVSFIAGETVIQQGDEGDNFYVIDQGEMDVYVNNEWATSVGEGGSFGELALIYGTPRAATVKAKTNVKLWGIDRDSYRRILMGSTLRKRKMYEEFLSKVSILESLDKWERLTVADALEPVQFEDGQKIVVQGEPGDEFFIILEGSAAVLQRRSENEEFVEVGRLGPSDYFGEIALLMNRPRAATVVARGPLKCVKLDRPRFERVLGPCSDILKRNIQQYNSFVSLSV

In the case of VQGNTDEAQEELAWKIAKMIVSDVMQQC(tetramethylrhodamine‑5‑maleimide)-NH2 (also called unsubstituted peptide) [AKB (dual), WT (SEQ ID NO:108) VQGNTDEAQEELAWKIAKMIVSDVMQQC, rhodamine-labeled], the “fold increase in binding affinity against the Ile variant” value in assay [1] is approximately 3 fold. In addition, the Kd is 2.2 nM in assay [2], 48 nM in assay [3], 2.2 nM in assay [4] and 48 nM in assay [5]. Also, the “EC50 (read off the curve)” value in assay [6] was approximately 50 nM; in assay [7], approximately 3 nM.

As a reminder, the Kd is the concentration at which binding is half-saturated. A high value points to weaker binding. In general, EC50 (read off the curve) refers to the concentration needed to bring the measured effect to its halfway point.
